For the series, the system named is CC(=O)SCCNC(=O)CCNC(=O)[C@H](O)C(C)(C)COP(=O)(O)OP(=O)(O)OC[C@H]1O[C@@H](n2cnc3c(N)ncnc32)[C@H](O)[C@@H]1OP(=O)(O)O. The experiment in a line: purified protein, by the assay type. The following applies: other: substrate varied, all other reagents saturating, 37° C., pH 7.5.

This note sets out measurements from patent US7211423B2, “Acetyl CoA carboxylase 2 sequences and methods” (Bristol-Myers Squibb Co., priority 2004, dated 2007).

recombinant human ACC2 (Homo sapiens; V2141I), sequence (chain, as listed by the source V2141I): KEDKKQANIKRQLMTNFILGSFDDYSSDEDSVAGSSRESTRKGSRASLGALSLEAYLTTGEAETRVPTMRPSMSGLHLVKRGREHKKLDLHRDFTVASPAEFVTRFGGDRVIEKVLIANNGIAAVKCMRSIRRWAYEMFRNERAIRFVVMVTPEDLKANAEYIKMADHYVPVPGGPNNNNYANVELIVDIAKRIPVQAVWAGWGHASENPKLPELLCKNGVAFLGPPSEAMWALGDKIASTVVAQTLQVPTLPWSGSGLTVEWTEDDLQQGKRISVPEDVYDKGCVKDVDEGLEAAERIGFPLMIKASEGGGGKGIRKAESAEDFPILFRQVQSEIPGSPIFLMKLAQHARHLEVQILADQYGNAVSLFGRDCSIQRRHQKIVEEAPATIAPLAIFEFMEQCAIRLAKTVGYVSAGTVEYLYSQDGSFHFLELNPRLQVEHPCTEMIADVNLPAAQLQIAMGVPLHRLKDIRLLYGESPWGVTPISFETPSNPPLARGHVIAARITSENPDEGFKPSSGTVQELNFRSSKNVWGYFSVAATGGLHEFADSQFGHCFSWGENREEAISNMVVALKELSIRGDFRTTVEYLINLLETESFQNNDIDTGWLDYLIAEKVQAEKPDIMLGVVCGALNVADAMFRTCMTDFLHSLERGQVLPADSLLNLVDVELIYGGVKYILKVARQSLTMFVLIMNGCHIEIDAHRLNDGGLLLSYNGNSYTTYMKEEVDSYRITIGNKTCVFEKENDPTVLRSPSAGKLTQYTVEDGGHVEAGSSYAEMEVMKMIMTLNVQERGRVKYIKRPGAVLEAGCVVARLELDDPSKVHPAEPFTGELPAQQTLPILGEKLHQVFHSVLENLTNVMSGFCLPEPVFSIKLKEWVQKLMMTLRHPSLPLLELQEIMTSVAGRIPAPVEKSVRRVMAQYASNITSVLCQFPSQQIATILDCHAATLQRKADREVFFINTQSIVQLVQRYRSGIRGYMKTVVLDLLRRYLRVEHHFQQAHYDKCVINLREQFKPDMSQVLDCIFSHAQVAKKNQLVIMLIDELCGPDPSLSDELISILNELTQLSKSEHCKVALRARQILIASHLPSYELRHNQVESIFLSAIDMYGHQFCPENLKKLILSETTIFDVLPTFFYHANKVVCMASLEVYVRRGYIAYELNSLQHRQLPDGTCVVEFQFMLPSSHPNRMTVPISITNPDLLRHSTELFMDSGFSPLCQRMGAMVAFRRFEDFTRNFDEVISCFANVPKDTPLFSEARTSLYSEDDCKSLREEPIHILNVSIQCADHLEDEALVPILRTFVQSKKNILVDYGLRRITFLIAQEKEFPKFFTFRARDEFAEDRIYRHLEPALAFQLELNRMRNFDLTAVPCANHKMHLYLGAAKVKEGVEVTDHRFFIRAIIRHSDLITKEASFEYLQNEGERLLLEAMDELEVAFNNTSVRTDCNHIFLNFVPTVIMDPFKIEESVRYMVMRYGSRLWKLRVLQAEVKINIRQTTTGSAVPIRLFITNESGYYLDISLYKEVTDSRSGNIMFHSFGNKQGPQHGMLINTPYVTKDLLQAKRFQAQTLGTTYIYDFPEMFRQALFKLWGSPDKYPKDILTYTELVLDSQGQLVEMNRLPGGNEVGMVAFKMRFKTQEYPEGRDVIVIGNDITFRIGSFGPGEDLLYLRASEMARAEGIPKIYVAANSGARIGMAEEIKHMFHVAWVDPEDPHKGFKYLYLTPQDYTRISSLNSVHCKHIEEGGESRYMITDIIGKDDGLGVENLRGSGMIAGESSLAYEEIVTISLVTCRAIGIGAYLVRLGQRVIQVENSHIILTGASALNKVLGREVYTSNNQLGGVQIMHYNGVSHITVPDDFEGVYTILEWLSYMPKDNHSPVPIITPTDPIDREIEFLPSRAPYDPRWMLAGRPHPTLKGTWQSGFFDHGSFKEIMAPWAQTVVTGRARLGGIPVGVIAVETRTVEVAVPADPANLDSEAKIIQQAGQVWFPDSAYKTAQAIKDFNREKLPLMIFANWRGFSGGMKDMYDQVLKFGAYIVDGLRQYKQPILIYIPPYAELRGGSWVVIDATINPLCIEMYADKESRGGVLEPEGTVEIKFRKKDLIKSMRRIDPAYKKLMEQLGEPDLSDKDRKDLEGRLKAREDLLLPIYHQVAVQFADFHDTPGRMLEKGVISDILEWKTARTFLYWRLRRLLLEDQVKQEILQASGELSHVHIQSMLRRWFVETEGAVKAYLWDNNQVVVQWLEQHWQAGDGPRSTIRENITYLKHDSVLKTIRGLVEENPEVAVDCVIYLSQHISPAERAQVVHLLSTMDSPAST

Turning to “recombinant human ACC2 (Homo sapiens; V2141I)”, the Km came to 23 µM.

By Km is commonly meant the concentration of substrate that gives half-maximal velocity.
